In the nanobody polyreactivity screen of Harvey et al. (2022):

Assay: yeast display, Sf9 membrane polyspecificity reagent, FACS + sequencing; frameworks hold sequencing errors
How it was run: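 Using colony PCR, genes from sorted yeast display clones were amplified, then sequenced on MiSeq at 2 × 250 and filtered by CDR length. The clones had been stained with 10% biotinylated, detergent-solubilized Sf9 membrane reagent for 1 hour at 4 °C and sorted by FACS into low and high (top ~1%) gates on anti-HA and streptavidin fluorescence. Polyreactivity labels come from the gate of origin.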

| Sequence | polyreactivity (PSR sort gate) |
| --- | --- |
| QVQLVESGGGLVQAGGRLRLSCAASGRTFDVYAMVWYRQAPGKERELVAAISKRGGSTYYADSVKGRFTISRDNAKNTVYLQMNSLKPEDTAVYYCNAYQTGWKGYDYWGQGTQVTVSS | high polyreactivity |
| QVQLVESGGGLVQAGGRLRLSCAASGRTFGPNVMGWYRQAPGKERELVAAITSGGTTYYADSVKGRFTISRDNAKNTVYLQMTSLIPADTAVYYCAATFYPYQVHHYYYWGQGTQVTVSS | low polyreactivity |
| QVQLVESGGGLVQAGGRLRLSCAASGRTFHYYALGWYRQATGKERELVAVIRYSGGRTYYADTVKGRFTISRDNAKNTVYLQMNSLKPEDTAVYYCNKGRWRTDPPVYLIAFDYWGQGTQVTVSS | low polyreactivity |
| QVQLVESGGGLVQAGGRLRLSCAASGRTFLYYAMGWSRQAPGKERELVAAINWRGTRTYYADSVKGRFTISRDNAQNTVYLQMNSLKPEDTAVYYCNRQGPDFHLRAGQGNYWGQGTQVTVSS | high polyreactivity |
| QVQLVESGGGLVQAGGRLRLSCAASGRTFRYYGMGWYRQAPWKERELVAAISWSGGSTYYADSVKGRFTISRDNAKNTVYLQMNSLTPEDTAVYYCNVDFHWQRFHHKSAAYDYWGQGTQVTVSS | high polyreactivity |
| QVQLVESGGGLVQAGGRLRLSCAASGRTFSPYAMGWYREAPGKEREFVAASTWSAGRTYYADSVKGRFTISRDNAKNTVYLQMNSLKPEDTAVYYCNARDRSITYPRYDYWGQGTQVTVSS | high polyreactivity |
| QVQLVESGGGLVQAGGRLRLSCAASGRTFYGFAMGWYRQAPGKERELVASISRDGSTNYADSVKGRFTISRDNAKNTVYLQMNSLKPEDNAVYYCAADIWYYRYPIYYYSYDYWGQGTQVTVSS | low polyreactivity |
| QVQLVESGGGLVQAGGRLRLSCAASGRTFYGYAMGWYSPAPGKERELVAAITNGGRTYYADSVKGRFTISRDNAKNTVYLQMNSLKPEATAVYYCAAGPGRGRSTLGSYYWGQGTQVTVSS | high polyreactivity |
| QVQLVESGGGLVQAGGRLRLSCAASGRTFYYYAMGWYRQAPGKERELVAAISWSGGRTYYADSVKGRFTISRDNAKNTVYLQMNSLKPEDTAVYYCNAETAAAQASYDRLDVLLDYWGQGTQVTVSS | low polyreactivity |
| QVQLVESGGGLVQAGGRLRLSCAASGRTIANYAMGWYRQAPGKERELVAAISFSTVSTYYADSVKGRFTISRDNAKNTVYLQMNSLKPEDTAVYYCAARRLGYYRKVKELDYWGQGTQVTVSS | high polyreactivity |
| QVQLVESGGGLVQAGGRLRLSCAASGSIFGVYAMGWYRQSPGKERELVATISRSGAITYYADSVKGRFTISRDNAKNTVYLQMNSLKPEDTAVYYCAADFFSRDWGQGTQVTVSS | low polyreactivity |
| QVQLVESGGGLVQAGGRLRLSCAASGSIFITYDMGWYRQAPGKERELVATISTTGGTTYYADSVKGRFTISRDNAMNTVYLQMNSLKPEDTAVYYCAADWRYLYYALDYWGQGTQVTVSS | low polyreactivity |
| QVQLVESGGGLVQAGGRLRLSCAASGSIFNSYAMGWYRQAPGTEREFVASIPKSGGTTYYADSVKGRFTISRDNAKNTVYLQMNSLKPEDTAVYYCAADWYRSSWTYNYWGQGTQVTLSS | low polyreactivity |
| QVQLVESGGGLVQAGGRLRLSCAASGSIFPQYAMGWYRQAPGKERELVAAITWSGSRTRYADSVKGRFTISRDNAKNTVYLQMNSLKPEDTAVYYCAARVNGQTYYYWGQGTQVTVSS | high polyreactivity |
| QVQLVESGGGLVQAGGRLRLSCAASGSIFVPNAMGGYRQAPGKERELVAAISGIGGSTSYADSEKGRFTISRDNAKNTVDLHMNSLQQEDTAVYYCARADKLHTRGWGRWGSGSYSWGQGTQVTVSS | low polyreactivity |
| QVQLVESGGGLVQAGGRLRLSCAASGSIFYRSAMGWYRQAPGKERELVAAITRSDGRTYYADSVKGRFTISRDNAKNTVYLQMNSLKPEDTAVYYCNKDGAYKTAYKRWTLYDYWGQGTQVTVSS | low polyreactivity |
| QVQLVESGGGLVQAGGRLRLSCAASGSISNRYAMGWYRQAPGKERELVAAISTGGGTTYYADSVKGRFTISRDNAKNTVYLQMNSLKPEDTAVYYCAADDWRYYRELDYWGQGTQVTVSS | low polyreactivity |
| QVQLVESGGGLVQAGGRLRLSCAASGSNFGSNAMGWYRQAPGKESEFVAVITCRVGDTYYADSVKGRFTISRDNAKNTVYLQMYSLKPEDTAVYYCNVDWKVYGAPDYRIAWKYDYWGQGTQVTVSS | low polyreactivity |
| QVQLVESGGGLVQAGGRLRLSCAASGSSFLGYVMGWSRQAPGKERELVAAITRSGGRTYYADSVKGRFTISRDNAKNTVYLQMTSLNPEDTAVYYCAALRGPSFHGYGYWGQGSQVTVSS | high polyreactivity |
| QVQLVESGGGLVQAGGRLRLSCAASGSTCGPYTLGWYRQAPGTEREVVATISSGGSTYYADSVKWRFTISRDNAKNTVYLQMNSLKPEDTAVYFCNKDFFYLRTWRSVYEFEYWGQGTQVTVSS | low polyreactivity |
| QVQLVESGGGLVQAGGRLRLSCAASGSTFEINVMGWYRQAPGKERELFAAITYSGGSTYYADSVKGRFTISRDNEKNTVYLQMNSLKPEDTAVYYWNADYILDAQYDYWGQGTQVTVSS | low polyreactivity |
| QVQLVESGGGLVQAGGRLRLSCAASGSTFGFNAMGWSREAPGKERELVAASNDSGGDTYYADSVKGRFTSSRDNAKNTVYLQMNSLKPEDTAVYYCAADEPSSVYGILVELEYWGQGTQVTVST | high polyreactivity |

| Sequence | polyreactivity (PSR sort gate) |
| --- | --- |
| QVQLVESGGGLVQAGGRLRLSCAASGSTFGINAMGWYRQAPGKERELVAAITSTGRTYYADSVKGRFTISRDNAKNTVYLQMNSLKPEDTAVYYCAAVWRYKGLLLPSYYYWGQGTQVTVSS | high polyreactivity |
| QVQLVESGGGLVQAGGRLRLSCAASGSTFHYYAMGWDRQAPGKERELVAAISQSGSGTYYADSVKGLFTISRDNAKKTVYLQMNSLKPEDTAVYYCAKDITGLSRYRRDYWGQGTQVTVSS | low polyreactivity |
| QVQLVESGGGLVQAGGRLRLSCAASGSTFQFYAMGWYRQAPGKERELVAAITSSGSSTYYADSVKGRFTISRDNAKNTVYLQMNSLKPEDTAVYYCAARYYGYSVSYYYWGQGTQVTVSS | high polyreactivity |
| QVQLVESGGGLVQAGGRLRLSCAASGSTFSFNAMGWYRQAPGKERELVAAIRVSSGTTYYADSVKGRFTISRDNAKNTVYLQMNSLKPEDTAVYYCAARYYYDWRQYGYWGQGTQVTVSS | high polyreactivity |
| QVQLVESGGGLVQAGGRLRLSCAASGSTFWGYTMGWYRQAPGKERELVAAISTIGGSTYYADSVKGRFTISRDNAKNTVYLQMNSLKTEDTAVYYCAAYKGKHYKEGYWGQGTQVTVSS | low polyreactivity |
| QVQLVESGGGLVQAGGRLRLSCAASGSTFWYYAMGWSRQAPGKEREFVAAITTGGSSTYYADSVKGRFTISRDNAKNTVYLQMNSLKPEDTAVYYCAARGWRSPYAYYYWGQGTQVTVSS | high polyreactivity |
| QVQLVESGGGLVQAGGRLRLSCAASGTFRRNAMGWYRQAPGKERELVAAIRWSGGITYYADSVKGRFTISRDNAKNTVYLQMNSLKPEDTADYYCSGQRYYGFGKTYYYWGQGTQVTVSS | high polyreactivity |
| QVQLVESGGGLVQAGGRLRLSCAASGYTFAGNAMGGYRPAPGKERELVAVITYSGGSTYYADSVKGRFTISRDNAKNTVYLQMNSLKPEDTAVYYCAADWQYSPRMDYWGQGTQVTVSS | low polyreactivity |
| QVQLVESGGGLVQAGGRLRLSCAASGYTFGVYDMGWYRQAPGKERELVAAISGSTYYADSVKGRFTISRDNAKNTVYLQMNSLKPEDTAVYYCAAESYFFSPRTREKFDYWGQGTQVTVSS | low polyreactivity |
| QVQLVESGGGLVQAGGRLRLSCAASVFTYKSYAMVWYRQAPGKERELVASIDKSTGNTFYADSVKGRFTISRDNAKNTVYLQMNSLKPEDTAVYYCAVDLLRSESHSKHIIYDYWGQGTQVTVSS | low polyreactivity |
| QVQLVESGGGLVQAGGRLRLSCAASVNTFGANAMGWYRQAPGKESELVADITQSGGSTYYADSVKGRFTISRDNAKNTVYLQMNSLKPEDTALYYCNIVTRYYTPFEEYDYWGQGTQVTVSS | low polyreactivity |
| QVQLVESGGGLVQAGGRLRLSCAATGRTFGRNAMGWYRQAPGKERELVAAINGNGGRTYYADSVKGRFTISRDNAKNTVYLQMNSLKPEDTAVYYCAADLRRSDYDYWGQGTKVTVSS | high polyreactivity |
| QVQLVESGGGLVQAGGRLRLSCAATGRTFLPNAMGWYRQAPGKERELVASINGDGTTNYADSVKGRFTISRDNAKNTVYLQMNSLKPEDTAVYYCAADGYGGYYRGTYYTVYYWGQGTQVTLSS | low polyreactivity |
| QVQLVESGGGLVQAGGRLRLSCAAYGRIFDYYAMGWYRPAPGKEREFVAGITSTGGSTYYADSVKGRFTISRDNAMNTVYFQMNSLKPEDTPVYYCNVVKRLRHGYDYWGQGNQVTVSS | high polyreactivity |
| QVQLVESGGGLVQAGGRLRLSCAAYGRTFSDYTMGWYRQAPGKERELVAAISRRGGTTYYADSVKGRFTISRDNAKNTVYLQMNSLKPEDTAVYYCAAKRYRPKYEYDYWGQGTQVTVSS | high polyreactivity |
| QVQLVESGGGLVQAGGRLRLSCAAYGSIFMYYAMGWYRQSPVKERELVAAITRGGSTYYADSVKGRFTISRDNAKNTVYLQMNSLKPEDTAVYYCAATTFRSVGYDYWGQGTQVTVSS | low polyreactivity |
| QVQLVESGGGLVQAGGRLRLSCADSGRIFVKNTMGWYRQAPGKERELVAAISWSGGSTYYADSVKGRFTISRDNAKNTVYLQMNSLKPEDTAVYYCNARKRTKLSYPKFDYWGQGTQVTVSS | high polyreactivity |
| QVQLVESGGGLVQAGGRLRLSCAHSGIIFFFYAMGWYRQAPGKERELVAAISDDGVSTDYADSVKGRFTISRDNAKNTVYLQMNSLKPEDTAVYYCAAKTERVYPWFSFGYWGQGTQVTVSS | low polyreactivity |
| QVQLVESGGGLVQAGGRLRLSCAPSGSTFSTYAMGSYRQAPGNERELVAVITWRGGSTYYADSVKGRFTISRDNAKNTVYLQMNSLKPEDTAVYYCAAEGESPEYDYWGQGTQVTVSS | low polyreactivity |
| QVQLVESGGGLVQAGGRLRLSCDASGSIFYYYTMGWYRQAPGKEREFVAAITWRGASTYYADSVKGRFTISRDNAKNTVDLKMNSLKPEDTAVDYCNARWRVPRYRYDYWGQGTQVTVSS | high polyreactivity |
| QVQLVESGGGLVQAGGRLRLSCTASGRPLYNYTMGWYRQAPGKERELVATINFSGGSTYYADSVKGRFTISRDNAKNTVYLQMNSLKQEDTAVYYCTARGYHYAYKGAYLGDDYWGQGTQVTVSS | low polyreactivity |
